Data reported in US20250257128A1.

Columns and labels:
human CD47 (human) [1] = biological target: human CD47 (human) (UniProt Q08722); experiment: flow cytometry on human red blood cells, antibody at 15 µg/mL (negative control)
human CD47 (human) [2] = biological target: human CD47 (human) (UniProt Q08722); experiment: flow cytometry on human red blood cells, antibody at 150 µg/mL (negative control)

human CD47 (human), sequence (Q08722 19-323): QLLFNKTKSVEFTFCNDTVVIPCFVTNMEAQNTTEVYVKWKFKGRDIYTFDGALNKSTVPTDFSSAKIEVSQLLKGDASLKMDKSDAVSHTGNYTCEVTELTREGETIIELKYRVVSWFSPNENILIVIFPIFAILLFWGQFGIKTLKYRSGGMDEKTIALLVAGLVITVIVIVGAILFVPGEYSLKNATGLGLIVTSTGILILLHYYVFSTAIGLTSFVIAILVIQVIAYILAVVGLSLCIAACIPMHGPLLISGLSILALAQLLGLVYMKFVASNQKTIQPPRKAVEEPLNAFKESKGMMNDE

MFI (human CD47 (human) [1]): 303 MFI | MFI (human CD47 (human) [2]): 901 MFI
Substance: Human IgG1 isotype negative control (antibody)
